# Measured values reported in the nanobody polyreactivity screen of Harvey et al. (2022).
# Assay: yeast display, Sf9 membrane polyspecificity reagent, FACS + sequencing; frameworks hold sequencing errors
# Outline: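 A synthetic nanobody library was expressed on Saccharomyces cerevisiae BJ5465 by galactose induction for 36–48 hours. The library was stained for 1 hour at 4 °C with 10% biotinylated, detergent-solubilized Sf9 membrane reagent and enriched with streptavidin microbeads before FACS. Low and high (top ~1%) gates were set on anti-HA fluorescence for expression and streptavidin fluorescence for reagent binding, and each polyreactivity label reflects the gate of origin.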
row,Sequence,polyreactivity (PSR sort gate)
1,QVQLVESGGGLVQAGGSLRLSCAASGLTFDRYVMGWYRQAPGKERELVAGISTGGSSTYYADSVKGRFTISRDNAKNTVYLQMNSLKPEDTAVYYCAAKLSYWSRHNYWGQGTQVTVSS,high polyreactivity
2,QVQLVESGGGLVQAGGSLRLSCAASGLTFDSSAMGWYRQAPGTERELVAAISFSGGRTYYADSVKGRFTISRDTAKNTVYLQMNSLKPDDTAVYYCAAQLRYKYDYWGHGTQVTVSS,high polyreactivity
3,QVQLVESGGGLVQAGGSLRLSCAASGLTFDYYAMGWYRQAPGKERELVAAIDWSGGSTYYADSVKGRFTISRDNAKNTVYLQMNSLKPEDSAVYYCATESDDSGMDYWGQGTQVTVSS,low polyreactivity
4,QVQLVESGGGLVQAGGSLRLSCAASGLTFEDNDMGWYRQAPGKERELVAAISSAGSTSYADSVKGRFTISRDNAKNTVYLQMNSLKPEDTAVYYCAKRYYLYHYDSWGQGTQVTVSS,low polyreactivity
5,QVQLVESGGGLVQAGGSLRLSCAASGLTFFRYARGWYRQAPGKERELVATITGRGGSTYYADSVKGRFTISRDNAKNTVYLQMNSLKPEDTAVYYCAAYYSRFRYLHRDYWGQGTQVTVSS,high polyreactivity
6,QVQLVESGGGLVQAGGSLRLSCAASGLTFFTYVMGWYRQAPGKERELVASISERGGSTFYADSVKGRFTISRDNAKNTVYLQMNSLKPEDTAVYYCATVSQSFKYRYRWRAAASDYWGQGTQVTVSS,high polyreactivity
7,QVQLVESGGGLVQAGGSLRLSCAASGLTFGAYAMGWYRQAPGKEREFVAAITYSGGSTNYADSVKGRFTISRDNAKNTVYLQMNSLKPEDTAVYYCNAGYYSPWAFYPYDYWGQGTQVTVSS,high polyreactivity
8,QVQLVESGGGLVQAGGSLRLSCAASGLTFGFNAMGWYRQAPGKERELVAVIDSGGSTNYADSVKGRFTISRDNAKNTVYLQMNSLKPEDTAVYYCAADYTGFYPDGSDVDYDYWGQGTQVTVSS,low polyreactivity
9,QVQLVESGGGLVQAGGSLRLSCAASGLTFGGYAMGWYRPAPGKERELVAAISWSGGRTYYADSVKGRFTISRDNAKNTVYLQMNSLKPEDTAVYYCAARKLVVNLREDYWGQGTQVTVSS,high polyreactivity
10,QVQLVESGGGLVQAGGSLRLSCAASGLTFGGYAMGWYRQAPGKERELVAAISRSGGSTYYADSVKGRFTISRDNAKNTVYLQMNSLKPEDTAVYYCAAVLSVRVYGYDYWGQGTQVTVSS,low polyreactivity
11,QVQLVESGGGLVQAGGSLRLSCAASGLTFGNYAMGWYRQAPGKERELVAAISKRGGTTYYADSVKARFTISRDNAKNTVYLQMNSLKPEDTAVYYCSARDYSHPTDDNYWGQGTQVTVSS,high polyreactivity
12,QVQLVESGGGLVQAGGSLRLSCAASGLTFGRNAMGWYRQAPCKERDLVAAITFNGGSTYYADSVKGRFTISRDNEKNTVYIQMNSLKPEDTAVYYCAARLWRRTRFDYWGQGTQVTVSS,high polyreactivity
13,QVQLVESGGGLVQAGGSLRLSCAASGLTFGRYAMGWYRQAPGKERELVAAITARVGRTYYADSVKGRFTISRDNAKNTVYLQMNSLKPEDTAVYYCAAGPSYYWYSHEKYDYWGQGTQVTVSS,high polyreactivity
14,QVQLVESGGGLVQAGGSLRLSCAASGLTFGSYAMGWYRQAPGKERELVAAITWSGGSTYYADSVKGRFTISRDNAKNTVYLQMNSLKPEDTAVYYCAVYSTEYKLLWGGIAYDYWGQGTQVTVSS,low polyreactivity
15,QVQLVESGGGLVQAGGSLRLSCAASGLTFGTNAMGWYRQAPGKERELVAAISTSSGSTYYADSVKGRFTISRDNAKNTVYLQMNSLKPEDTAGYYCAAVTVTKLSYYRYYYWGQGTQVTVSS,low polyreactivity
16,QVQLVESGGGLVQAGGSLRLSCAASGLTFGYYAMGWYRQAPGKERELVAAISQSGGSTYYADSVKGRFTISRDNAKNTVYLQMNSLKPEDTAVYYCATRRYGYRYDQPYSNDYWGQGTQVTVSS,low polyreactivity
17,QVQLVESGGGLVQAGGSLRLSCAASGLTFGYYAMGWYRQAPGKERELVAAISRGSSTYYADSVKGRFTISRDNAKNTVYLQMNSLKPEDTAVYYCNALFSYGYWRVRYIVTQYDYWGQGTQVTVSS,high polyreactivity
18,QVQLVESGGGLVQAGGSLRLSCAASGLTFHPYAMGWYRQAPGKERELVAAISSRGTSTYYADSVKGRFTISRDNAKNTVYLQMNSLKPEDTAVYYCAARHGPRAESMYYWGQCTQVTVSS,high polyreactivity
19,QVQLVESGGGLVQAGGSLRLSCAASGLTFHRYAMGWYRPAPGKERELVAAINYSGGRTYYADSVKGRFTISRDNAKYTVYLQMNSLKPEDTAVYYCAARFSRVYPRYDYWGQGTQVTVSS,high polyreactivity
20,QVQLVESGGGLVQAGGSLRLSCAASGLTFHRYAMGWYRQAPGKERELVAAINYSGGRTYYADSVKGRFTISRDNAKNTVYLQMNSLKPEDTAVYYCNKCYVYHPGSLEYGYWGQGTQVTVSS,high polyreactivity

row,Sequence,polyreactivity (PSR sort gate)
1,QVQLVESGGGLVQAGGSLRLSCAASGLTFHRYAMGWYRQAPGKERELVAAISRSGVTTRYADSVKGRFTISRDNAKNTVYLQMNSLKPEDTAVYYCAAVYRVRKITYDYWGQGTQVTVSS,high polyreactivity
2,QVQLVESGGGLVQAGGSLRLSCAASGLTFHRYAMGWYRQAPGKERELVADISSGDSTNYADSVKGRFTISRDNAKNTVYLQMNSLKPEDTAVYYCNTDGYIYRYRFDYWGQGTQVTVSS,low polyreactivity
3,QVQLVESGGGLVQAGGSLRLSCAASGLTFIGNAMGWYRQAPGKERELVAAITWSGTSTYYADSVKGRFTISRDNAKNTVYLQMNSLKPEDTAVYYCAAVLRRLGVSYYYWGQGTQVTVSS,high polyreactivity
4,QVQLVESGGGLVQAGGSLRLSCAASGLTFIGYVMGWYRQAPGKERELVAAISGSGGSTYYADSVKGRFTISRDNAKNTVYLQMNSLKPEDTAVYYCAARSRVLTRYDYWGQGTQVTVSS,high polyreactivity
5,QVQLVESGGGLVQAGGSLRLSCAASGLTFIVYAMAWYRQAPGKERELVADITWSGGSTYYADSVKGRFTISRDNAKNTVYLQMNSLKPEDTAVYYCNRQSAKIMDYWGQGTQVTVSS,low polyreactivity
6,QVQLVESGGGLVQAGGSLRLSCAASGLTFIYYAMGWYRQAPGKEREMVAAISTSGASTYYADSVKGRFTISRDNAKNTVYLQMNSLKPEVSAVYYCNGEYFGEYRDYGYWGQGTLVTVSS,low polyreactivity
7,QVQLVESGGGLVQAGGSLRLSCAASGLTFKTYAMGWYRQAPGKERELVAAITRNGGSTYYADSVKGRFTISRDNAKNTVYLQMNSLKPEDTAVYYCAARRAYDNRHDYWGQGTQVTVSS,high polyreactivity
8,QVQLVESGGGLVQAGGSLRLSCAASGLTFKWYAMGWYRQAPGKERELVAASSRDGSTYYADSVKGRFTLSRDNAKNTVYLQMTSLKPEDTAVDYCAADIWPSSLLADEYDYWGQGTQVTVSS,high polyreactivity
9,QVQLVESGGGLVQAGGSLRLSCAASGLTFKYYAMGWYRQAPGKESELVAAITSTGGRTYYADSVKGRFTISRDNAKNTVYLQMNSLKPEDTAVYYCAAYYVGSSKYDSWGQGTQVTVSS,low polyreactivity
10,QVQLVESGGGLVQAGGSLRLSCAASGLTFNAYAMGWYRQAPGKERELVADITTSDGSTFYADSVKGRFTISRDNAKNTVYLQMNSLKPEDTAVYYCNADAYGWYSGPWFKWLLWYDYWGQGTQVTVSS,low polyreactivity
11,QVQLVESGGGLVQAGGSLRLSCAASGLTFNRYAMGWYRQARGKERELVAAISINGGSTYYADSVKGRFTISRDNAKNTVYLQMNSLKPEDTAVYYCAARRVQRPSTYGYWGQGTQVTVSS,high polyreactivity
12,QVQLVESGGGLVQAGGSLRLSCAASGLTFNYYDRGWYRQAPGKERELVAAISRSRTNTSYADSVKGRFTISRDNAKNTVYLQMNSLKPEDTAVYYCNAAGVYLAAGPYTANFNYNYWGQGTQVTVSS,low polyreactivity
13,QVQLVESGGGLVQAGGSLRLSCAASGLTFPLYVMGWYRQAPGKARELVATITGGGSTTYADSVKGRFTISRDNAKNTVYFQMNSLKPEDTAVYYCAADFVFVATPLRYDYWGPGTQVTVSS,low polyreactivity
14,QVQLVESGGGLVQAGGSLRLSCAASGLTFPRYTMGWYRQPPGKERELVAAISSSTGTTNYADSVKGRFTISRDNAKNTVYLQMNSLKPEDTAVYYCAKRVSSWLGFHLDYWGQGTQVTVSS,low polyreactivity
15,QVQLVESGGGLVQAGGSLRLSCAASGLTFPSYAMGWYRQAPGKERELVAAISRRSGSTYYADSVKGRFTISRDNAKNTVYLQMNSLKPEDTAVYYCTTRRGERGYWGQGTQVTVSS,high polyreactivity
16,QVQLVESGGGLVQAGGSLRLSCAASGLTFPTYAMGWYRQAPGKERELVAAISRIGGRTYYADSVKGRFTISRDNAKNTFYLQMNSLKPEDTAVYYCAADVIKGCVEYDYWGQGTKVTVSS,high polyreactivity
17,QVQLVESGGGLVQAGGSLRLSCAASGLTFPVYTMGWYRQAPGKEREFVAAITYNGGRTYYADSVKGRFTISRDNAKNTVYLQMNSLKPEDTAVYYCAAEYGTYFVRYYAGASYRYGYWGQGTQVTVSS,low polyreactivity
18,QVQLVESGGGLVQAGGSLRLSCAASGLTFPYNVMGWYRQAPGKERELVASITSVGTTDYADSVKGRFTISRDNAKNTVSVLMNSLKPEVTAVYYCAADVTLFYWWYGKEDYDYWGQGTQVTVSS,low polyreactivity
19,QVQLVESGGGLVQAGGSLRLSCAASGLTFPYYAMGWYRQAPGKERELVAVITSGGRTYYADSVKGRFTISRDNAKNTVYLQMNSLKPEDTAVYYCAVGWRTIYGSDGDYWGQGTQVTVST,high polyreactivity
20,QVQLVESGGGLVQAGGSLRLSCAASGLTFPYYVMGWSRQAPGKERELVAAITTDDRTYYADSVKGRFTISRDNAKNTVYLQMNSLKPEDTAVYYCNVVIYYFNSRTVYYDYDYWGQGTQVTVSS,high polyreactivity
